This note sets out measurements from patent publication US20090191584, “Transcriptional repression of sodium-iodide symporter in thyroid carcinoma” (UNIVERSITY OF KENTUCKY RESEARCH FOUNDATION, published 2009).

This series addresses PARP-1 (commercial) (Homo sapiens, UniProt P09874 SEQ:1-1013). Put plainly: EMSA; 1.5 ug purified PARP-1, no shift. To be noted: tags: Trevigen; label: 32P. As to the method:
To evaluate whether purified PARP-1 is associated with NRBS, Applicants performed EMSA using commercial PARP-1 and radiolabeled Probe A (FIG. 18, lane 3). […] As PARP-1 was reported to bind to DNA using its N-terminal domain, the N-terminal DNA-binding domain (1-372 aa) from human PARP-1 were stably transfected into KAK-1 cells. Nuclear extract from multiple pooled positive clones from this transfection or a single positive clone from the same transfection experiment were incubated with labeled Probe A and subjected to EMSA (FIG. 18; lanes 6 & 10, respectively). The gel-shift bands produced were not appreciably different from those produced by nuclear extract from KAK-1 cells transfected with the empty vector (pCR3.1; lane 8) or those produced by parental KAK-1 nuclear extract (lane 2). Addition of cold Probe A, in each case, competed similarly against their respective matched lanes (lanes 3, 7, 9, & 11).
In general terms: In EMSA bound probe runs differently from free probe, usually more slowly.

PARP-1 (commercial), sequence (P09874 2-1014): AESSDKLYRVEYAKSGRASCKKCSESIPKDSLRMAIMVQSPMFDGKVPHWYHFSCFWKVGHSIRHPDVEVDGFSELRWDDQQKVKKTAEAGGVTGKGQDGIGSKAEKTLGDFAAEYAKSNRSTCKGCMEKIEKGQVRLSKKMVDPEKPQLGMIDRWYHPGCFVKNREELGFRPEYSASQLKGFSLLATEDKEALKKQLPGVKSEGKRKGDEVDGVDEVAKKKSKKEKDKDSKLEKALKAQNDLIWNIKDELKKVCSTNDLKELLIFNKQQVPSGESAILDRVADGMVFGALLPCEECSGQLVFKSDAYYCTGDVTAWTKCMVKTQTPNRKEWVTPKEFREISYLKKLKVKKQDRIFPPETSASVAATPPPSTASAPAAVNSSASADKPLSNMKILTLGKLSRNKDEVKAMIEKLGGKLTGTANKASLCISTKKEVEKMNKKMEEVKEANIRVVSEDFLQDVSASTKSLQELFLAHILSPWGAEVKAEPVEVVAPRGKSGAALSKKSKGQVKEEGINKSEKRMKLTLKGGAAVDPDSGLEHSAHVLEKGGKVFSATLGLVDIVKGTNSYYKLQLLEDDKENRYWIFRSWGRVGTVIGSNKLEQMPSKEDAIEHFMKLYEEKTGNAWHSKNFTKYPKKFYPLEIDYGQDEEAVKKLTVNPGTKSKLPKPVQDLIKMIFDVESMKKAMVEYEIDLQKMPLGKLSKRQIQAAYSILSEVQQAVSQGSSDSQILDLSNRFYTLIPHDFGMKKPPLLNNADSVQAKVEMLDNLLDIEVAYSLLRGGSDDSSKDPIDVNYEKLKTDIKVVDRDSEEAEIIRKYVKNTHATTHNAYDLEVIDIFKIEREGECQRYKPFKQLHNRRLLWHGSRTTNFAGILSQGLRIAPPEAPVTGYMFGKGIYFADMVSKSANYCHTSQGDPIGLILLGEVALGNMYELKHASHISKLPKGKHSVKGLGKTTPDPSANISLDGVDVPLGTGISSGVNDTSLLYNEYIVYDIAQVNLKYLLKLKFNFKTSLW

B1: Probe A (-684 to -565 hNIS) (dsDNA)
DNA 1: AAGCAGGCTGTGCAGGCTTGGATAGTGACATGCCCTTTTTGAGCCTCAATTTCCCCACCTGTCAACAGCAGACAGTGACAGCTGTGATCAGGGGATCACAGTGCATGGGGATGGGTGTGT
DNA 2: ACACACCCATCCCCATGCACTGTGATCCCCTGATCACAGCTGTCACTGTCTGCTGTTGACAGGTGGGGAAATTGAGGCTCAAAAAGGGCATGTCACTATCCAAGCCTGCACAGCCTGCTT
Take B1: the binding result is on record as “no binding”.
